In PMC7263513 (bioRxiv, 2020):

B1: C214 (antibody, V domains shown)
VH: QVQLVESGGGVVQPGRSLRLSCAASGFTFSSYGMHWVRQAPGKGLEWVAAIWYDGSNKHYADSVKGRFTISRDNSKNTLYLQMNSLRAEDTAVYYCARDVGRVTTWFDPWGQGTLVTVSS
VL: not shown
B2: C143 (antibody, V domains shown)
VH: EVQLVESGGGLVQPGGSLRLSCAASGFSVSTKYMTWVRQAPGKGLEWVSVLYSGGSDYYADSVKGRFTISRDNSKNALYLQMNSLRVEDTGVYYCARDSSEVRDHPGHPGRSVGAFDIWGQGTMVTVSS
VL: QSALTQPASVSGSPGQSITISCTGTSNDVGSYTLVSWYQQYPGKAPKLLIFEGTKRSSGISNRFSGSKSGNTASLTISGLQGEDEADYYCCSYAGASTFVFGGGTKLTVL
B3: C164 (antibody, V domains shown)
VH: EVQLVESGGGLVQPGGSLRLSCAASGFSVSTKYMTWVRQAPGKGLEWVSVLYSGGSDYYADSVKGRFTISRDNSKNALYLQMNSLRVEDTGVYYCARDSSEVRDHPGHPGRSVGAFDIWGQGTMVTVSS
VL: QSALTQPASVSGSPGQSITISCTGTSNDVGSYTLVSWYQQYPGKAPKLLIFEVTKRSSGISNRFSGSKSGNTASLTISGLQGEDEADYYCCSYAGASTFVFGGGTKLTVL
B4: C154 (antibody, V domains shown)
VH: QVQLVESGGGVVQPGRSLRLSCAASGFTFSRYGMHWVRQAPGKGLEWVAVMSYDGSSKYYADSVKGRFTISRDNSKNTLCLQMNSLRAEDTAVYYCAKQAGPYCSGGSCYSAPFDYWGQGTLVTVSS
VL: DIQMTQSPSSLSASVGDRVTITCQASQGISNYLNWYQQKPGKAPKLLIYDASNLETGVPSRFSGSGSGTDFTFTISSLQPEDIATYYCQQYDNLPITFGQGTRLEIK
B5: C202 (antibody, V domains shown)
VH: EVQLVESGGGLVQPGGSLRLSCAASGFTVSSNYMSWVRQAPGKGLEWVSLIYSGGSTYYADSVKGRFTISRDNSKNTLYLQMNSLRAEDTAVYYCARDTLGRGGDYWGQGTLVTVSS
VL: DIQLTQSPSSLSASVGDRVTITCQASQDISNYLNWYQQKPGKAPKLLIYDASNLETGVPSRFSGSGSGTDFTFTISSLQPEDIATYYCQQYDNLPRSFGQGTKLEIK
B6: C165 (antibody, V domains shown)
VH: QVQLVQSGAEVKKPGSSVKVSCKASGGTFSSYAINWVRQAPGQGLEWMGRIIPIVGIANYAQKFQGRVTITADKSSSTAYMELSSLRSEDTAVYYCARDLLDPQLDDAFDIWGQGTMVTVSS
VL: not shown
B7: C216 (antibody, V domains shown)
VH: EVQLVESGGGLVQPGGSLRLSCAASGFTFSSYDMHWVRQATGKGLEWVSAIGTAGDTYYPDSVKGRFTISRENAKNSLYLQMNSLRAGDTAVYYCARDRGSSGWYGWYFDLWGRGTLVTVSS
VL: not shown
B8: C207 (antibody, V domains shown)
VH: not shown
VL: EIVLTQSPATLSLSPGERATLSCRASQSVSSYLAWYQQKPGQAPRLLIYDASNRATGIPARFSGSGSGTDFTLTISSLEPEDFAVYYCQQRSNWPRGFGQGTKVEIK
B9: C151 (antibody, V domains shown)
VH: EVQLVESGGGLVKPGGSLRLSCAASGFTFSSYNMNWVRQAPGKGLEWVSCISSSSSYIYYADSVKGRFTISRDNAKNSLYLQMNSLRAEDTAVYYCARERGYDGGKTPPFLGGQGTLVTVSS
VL: NFMLTQPHSVSESPGKTVTISCTGSSGSIASNYVQWYQQRPGSAPTTVIYEDNQRPSGVPDRFSGSIDSSSNSASLTISGLKTEDEADYYCQSYDSSNYWVFGGGTKLTVL
B10: C204 (antibody, V domains shown)
VH: EVQLLESGGGLEQPGGSLRLSCAASGFTFSTYAMSWVRQAPGKGLEWVSAISGSGAGTFYADSVKGRFTISRDNSKNTLYLQMNSLRAEDTAVYYCARESDCGSTSCYQVGWFDPWGQGTLVTVSS
VL: not shown
B11: C148 (antibody, V domains shown)
VH: EVQLVESGGGLVQPGGSQRLSCAASGFTVSSNYMSWIRQAPGKGLEWVSVIYSGGSAYYVDSVKGRFTISRDNSKNTLYLQMNSLRPEDTAVYYCARIANYMDVWGKGTTVTVSS
VL: EIVMTQSPATLSVSPGERATLSCRASQSVSSHLAWYQQKPGQAPRLLIYGASTRATGIPTRFSGSGSGTEFTLTISSLQSEDFAVYYCQQYNNWPPLTFGGGTKVEIK
B12: C201 (antibody, V domains shown)
VH: EVQLVESGGGLVQPGRSLRLSCAASGFTFDDYAMHWVRQAPGKGLEWVSGISWNSGSIGYADSVKGRFTISRDNAKNSLYLQMNSLRAEDTALYYCVKGVEYSSSSNFDYWGQGTLVTVSS
VL: IRMTQSPSSVSASVGDRVTITCRASQGISSWLAWYQQKPGKAPKLLIYVESSLQSGVPSRFSGSGSGTDFTLTISSLQPEDFATYYCQQANSFPLTFGGGTKVEIK
B13: C215 (antibody, V domains shown)
VH: EVQLLESGGGLVQPGGSLRLSCAASGFTFSSYAMSWVRQAPGKGLEWVSAITDSGDGTFYADSVKGRFTISRDNSKNTLYLQMNSLRAEDTAVYYCASEEDYSNYVGWFDPWGQGTLVTVSS
VL: not shown
B14: C155 (antibody, V domains shown)
VH: EVQLVESGGGLIQPGGSLRLSCAASGFIVSSNYMSWVRQAPGKGLEWVSVIYSGGSTFYADSVKGRFTISRDNSKNTLYLQMNSLRAEDTAVYYCARDFGEFYFDYWGQGTLVTVSS
VL: EIVMTQSPATLSVSPGERATLSCRASQSVSSNLAWYQQKPGQAPRLLIYGASTRATAIPARFSGSGSGTEFTLTISSLQSEDFAVYYCQQYNNWPRTFGQGTKVEIK
B15: C211 (antibody, V domains shown)
VH: EVQLVESGGGLVQPGGSLRLSCAASEFTVSSNYMSWVRQAPGKGLEWVSVIYSGGSTFYADSVKGRFTISRDNSKNTLYLQMNSLRPEDTAVYYCARDYGDFYFDFWGQGTLVTVSS
VL: EIVMTQSPATLSVSPGERATLSCRASQSVSSNLAWYQQKPGQGPRLLIYGASTRATGIPARFSGSGSGTEFTLTISSLQSEDFAVYYCQQYNNWPRTFGQGTKVEIK
B16: C210 (antibody, V domains shown)
VH: EVQLVESGGGLIQPGGSLRLSCAASGFTVSSNYMSWVRQAPGKGLEWVSVIYSGGSTFYADSVKGRFTFSRDNSKNTLYLQMNSLRAEDTAVYYCARDLMAYGMDVWGQGTTVTVSS
VL: DIQLTQSPSFLSASVGDRVTITCRASQGISSYLAWYQQKPGKAPKLLIYAASTLQSGVPSRFSGSGSGTEFTLTISSLQPEDFATYYCQQLNSYPQGTFGGGTKVEIK
B17: C156 (antibody, V domains shown)
VH: QVQLVESGGGVVQPGRSLRLSCAASGFTFSNYGMHWVRQAPGKGLEWVAVISYDGNNKYYADSVKGRFTISRDNSKNTLYLQMNSLRAEDTAVYYCAKDPFPLAVAGTGYFDYWGQGTLVTVSS
VL: SYELTQPPSVSVAPGQTARISCGGNNIGSKNVHWYQQKPGQAPVLVVYDDSDRPSGIPERFSGSNSGNTATLTISRVEAGDEADYYCQVWDSSSDPWVFGGGTKLTVL
B18: C145 (antibody, V domains shown)
VH: EVQLVESGGGLIQPGGSLRLSCAASGFSVSSNYMSWVRQAPGKGLEWVSVIYSGGSTYYADSVKGRFTISRDNSKNTLYLQMNSLRAEDTAVYYCAREGEVEGYYDFWSGYSRDRYYFDYWGQGTLVTVSS
VL: QSALTQPASVSGSPGQSITISCTGTSSDVGGYNYVSWYQQHPGKAPKLMIYDVSNRPSGVSNRFSGSKSGNTASLTISGLQAEDEADYYCSSYTSSTTRVFGTGTRVTVL
B19: C150 (antibody, V domains shown)
VH: EVQLVESGGGLVQPGGSLRLSCVASGFTFSSYWMHWVRQVPGKGPVWVSHINSEGSSTNYADSVRGRFTISRDNAKDTLYLQMNNLRAEDTAVYYCARPTAVAAAGNYFYYYGMDVWGQGTTVTVSS
VL: QSALTQPASVSGSPGQSITISCTGTSSDVGYYNFVSWYQQHPGKAPKLMIYEVSNRPSGVSNRFSGSKSGNTASLIISGLQAEDEADYYCSSYRSSSTLVFGGGTKLTVL
B20: C153 (antibody, V domains shown)
VH: EVQLVESGGGLIQPGGSLRLSCAASGFTVSSNYMSWVRQAPGKGLEWVSVIYSGYSTYYVDSVKGRFTISRDNSKNTLYLQMNSLRAEDTAVYYCARVGGAHSGYDGSFDYWGQGTLVTVSS
VL: QSALTQPASVSGSPGQSITISCTGTSSDVGSYNLVSWYQQHPGKAPKLMIYEGSKRPSGVSNRFSGSKSGNTASLTISGLQAEDEADYYCCSYAGSSTWVFGGGTKLTVL
B21: C146 (antibody, V domains shown)
VH: EVQLVESGGGLVKPGGSLRLSCAASGLTFTAYRMNWVRQAPGKGLEWLSSISNTNGDIYYADSVKGRFTISRDNAKNSLYLQMNSLRADDTAVYYCARDVASNYAYFDLWGQGTLVTVSS
VL: QSALTQPASVSGSPGQSITISCTGTSSDIGVYNYISWSQQHPGKAPKVMIYDVTNRPSGVSNRFSGSKSGNTASLTISGLQAEDEADYYCSSYRGSSTPYVFGTGTKVTVL
B22: C208 (antibody, V domains shown)
VH: EVQLVQSGAEVKKPGESLKISCKGSGYSFTSYWIGWVRQMPGKGLEWMGIIYPGDSDTRYSPSFQGQVTISADKSISTAYLKWSSLKASDSAMYYCARGPNLQNWFDPWGQGTLVTVSS
VL: EIVLTQSPGTLSLSPGERATLSCRASQSVSGSYLAWYQQRPGQAPRLLIYGASSRATGIPDRFSGSGSGTDFTLTISRLEPEDFAVYYCQQYGSSLTFGGGTKVEIK

Target: T1, SARS-CoV-2 receptor binding domain (RBD) (Severe acute respiratory syndrome …, UniProt P0DTC2)
Assay: cell-based or functional assay

B1 and B2 cannot be ordered by “IC50 of neutralisation of SARS-CoV-2 pseudovirus (293T_(ACE2) cells)” value (from here on “IC50”): greater than 1 µg/mL for the first, greater than 1 µg/mL for the second.

Compared with B3, B4 is 1.8-fold higher in “IC50” value: 0.239 µg/mL for the first, 0.435 µg/mL for the second.

Compared with B5, B6 is lower in “IC50” value: greater than 1 µg/mL for the first, 0.0408 µg/mL for the second.

Compared with B7, B8 is lower in “IC50” value: greater than 1 µg/mL for the first, 0.159 µg/mL for the second.

Going from B9 to B10, the “IC50” value rises from 0.0318 µg/mL to greater than 1 µg/mL.

B11 and B12 cannot be ordered by “IC50” value: greater than 1 µg/mL for the first, greater than 1 µg/mL for the second.

Going from B13 to B14, the “IC50” value falls from greater than 1 µg/mL to 0.011 µg/mL.

Compared with B15, B16 is 4-fold higher in “IC50” value: 0.0128 µg/mL for the first, 0.0507 µg/mL for the second.

Going from B17 to B18, the “IC50” value falls from greater than 1 µg/mL to 0.00304 µg/mL.

Compared with B19, B20 is lower in “IC50” value: greater than 1 µg/mL for the first, 0.0707 µg/mL for the second.

Target: T1, SARS-CoV-2 receptor binding domain (RBD)
Assay: ELISA

B21: no binding (tested: >1000 ng/ml).
B22: no binding (tested: >1000 ng/ml).
